Here are results for 2 substances from patent publication US20050032185A1.

The target of assay [1] is HA-PKBα (haemagglutinin epitope-tagged human PKBα expressed in 293 cells) (human) (UniProt P31749). Nature of the assay: cell-based or functional assay.
Assay [2] concerns the target GST-PKBα (full length human protein kinase Bα with N-terminal glutathione S-transferase, from unstimulated 293 cells) (human) [GST: P08515]. Nature of the assay: cell-based or functional assay.

GST-PKBα (full length human protein kinase Bα with N-terminal glutathione S-transferase, from unstimulated 293 cells) (human) [GST: P08515], sequence (P08515 1-218, tags or fused parts left off): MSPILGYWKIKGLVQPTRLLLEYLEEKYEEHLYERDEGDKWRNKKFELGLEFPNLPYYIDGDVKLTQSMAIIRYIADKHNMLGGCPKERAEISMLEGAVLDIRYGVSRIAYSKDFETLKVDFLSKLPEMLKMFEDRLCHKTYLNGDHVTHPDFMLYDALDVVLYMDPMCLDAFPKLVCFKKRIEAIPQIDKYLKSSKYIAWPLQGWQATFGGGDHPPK
HA-PKBα (haemagglutinin epitope-tagged human PKBα expressed in 293 cells) (human), sequence (P31749 whole entry): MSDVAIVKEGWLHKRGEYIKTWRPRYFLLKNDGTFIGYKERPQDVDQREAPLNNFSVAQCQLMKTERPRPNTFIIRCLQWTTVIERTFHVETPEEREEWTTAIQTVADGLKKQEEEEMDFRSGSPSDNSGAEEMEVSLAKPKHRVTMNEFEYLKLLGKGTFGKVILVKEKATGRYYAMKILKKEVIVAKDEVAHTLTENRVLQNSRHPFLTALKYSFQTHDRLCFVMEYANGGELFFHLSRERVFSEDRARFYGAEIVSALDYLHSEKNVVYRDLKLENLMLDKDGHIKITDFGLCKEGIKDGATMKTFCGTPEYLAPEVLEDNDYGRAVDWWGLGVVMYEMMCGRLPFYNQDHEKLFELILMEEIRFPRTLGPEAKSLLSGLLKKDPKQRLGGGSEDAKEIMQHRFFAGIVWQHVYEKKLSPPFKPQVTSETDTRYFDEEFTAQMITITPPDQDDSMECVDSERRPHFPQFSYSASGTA

In assay [1], “Myc-PDK1 (N-terminal Myc epitope-tagged human PDK1, residues 52-556, expressed in 293 cells) (from UniProt O15530 52-556) (enzyme)” registered a Thr308 phosphorylation of HA-PKBα in unstimulated cotransfected 293 cells, relative to IGF1-stimulated cells with HA-PKBα alone of 70%; an activity of HA-PKBα immunoprecipitated from cotransfected 293 cells after IGF-1 of 70 fold; an activity of HA-PKBα immunoprecipitated from cotransfected, unstimulated 293 cells of 20 fold; a further increase of Thr308 phosphorylation of HA-PKBα in cotransfected cells in response to IGF1 of 4 fold.

Consider “PtdIns(3,4,5)P3-dependent protein kinase-1 (PDK1) purified from rabbit skeletal muscle (enzyme)”, for which, in assay [2], the fold activation with sn-1,2-dipalmitoyl D-PtdIns(3,4,5)P3 is 5.5 fold; the fold activation with sn-1-stearoyl, 2-arachidonyl D-PtdIns(3,4,5)P3 (lipid 1) turned out to be 13 fold; the fold activation with sn-2-arachidonyl, 3-stearoyl D-PtdIns(3,4,5)P3 came out at 16 fold; the fold activation with sn-2-arachidonyl, 3-stearoyl L-PtdIns(3,4,5)P3 is 2.3 fold. The fold activation with the L-enantiomer of sn-1-stearoyl, 2-arachidonyl PtdIns(3,4,5)P3 in assay [2] is 1.7 fold.
